Reference: US20230312753A1 (IMMUNORIZON, published 2023)

Assays:
NKG2A-CD94-ECD-hFc [1] = target: T1, NKG2A-CD94-ECD-hFc (human, UniProt P26715 94-233; Q13241 32-179, limits assumed); assay: ELISA on coated NKG2A-CD94-ECD-hFc (FIG. 43D)
T1 construct: extracellular domain; Lot 20200724002, 'provided by CP'; the two-chain layout here is only the reading of the name; also called human NKG2A (recombinant); NKG2A antigen; not shown: human Fc (hFc)
Description: (§1) Methods: ELISA binding of Tribody/ProTribody antibody constructs to antigens: Dilute target protein (hCD3epsilon-His (cat # 10977-H08S, supplier Sino Biological); h5T4-His (cat# 19845-H08H, supplier Sino Biological); NKG2A-CD94-ECD-hFc, Lot:20200724002, provided by CP; or NKG2D-ECD-hFc, Lot: 20200413002, provided by CP) into PBS with final concentration of 0.01 µg/mL for hCD3epsilon-His, 0.3 µg/mL for h5T4-His, 1 µg/mL for NKG2A-CD94-ECD-hFc and 0.7 µg/mL for hNKG2D-ECD-hFc respectively and coat 100 µL/well on ELISA plate (cat: 9018, supplier Corning) respectively. Incubate O/N, 4° C. The plates were blocked with 250 µL 1% BSA in PBST for 1 hr at 37° C.Wash 4 times with PBST. All the washes are done using Biotek (Elx 405). All the Tribody set antibodies were diluted to 400 nM and make 4-fold serially dilutions (12 points, including 0 point). Add 100 µL/well diluted antibody constructs solution to plate, incubate for 1 hr at 37° C.Wash 4 times with PBST. Add 100 µL/well anti-human kappa light chain-HRP (1:10000), incubate for 0.5 hr at 37° C. Wash 4 times with PBST. 100 µL/well of TMB substrate was added and incubated at room temperature for 5 min. 100 µL/well of 1N HCl to terminate reaction. Plates were read using ELISA plate reader at 450 nm wavelength (instrunet SpectraMax M5e). Data Analysis was performed using Graphpad prism 5 software by using nonlinear regression (curve fit): log (agonist) vs. response, agonist is antibody concentration (nM) and response is OD value.

[2] = target: T2, NKG2A/CD94 on CHO cells (CHOK1-NKG2A-CD94) (human, UniProt P26715 1-233; Q13241 1-179, limits assumed); assay: competitive FACS receptor-ligand blocking assay on CHOK1-NKG2A-CD94 cells, labelled ligand HLA-E PE (FIG. 49)
T2 construct: whole, on cells; also called CHO cells over-expressing NKG2A/CD94; CHO cell line over expressing ectopic NKG2A

NKG2A-CD94-ECD-hFc [3] = target: T1, NKG2A-CD94-ECD-hFc; assay: ELISA on coated NKG2A-CD94-ECD-hFc (FIG. 43C)
Description: as §1

[4] = target: T2, NKG2A/CD94 on CHO cells …; assay: FACS on CHO cells over-expressing human NKG2A (FIG. 45F)
Description: Then wash the cells 3 times with 170 µL FACS buffer. Re-suspend the cells at 100 µL/well with secondary antibody (goat anti-human Ig Fab-FITC, Cat # 2085-02, Southern biotech) with 1:400 dilution and incubate the plate for 30 min at 4° C. in dark. Centrifuge the plate at 2000 rpm, 4° C. for 5 min and discard supernatant. Then wash the cells 3 times with FACS buffer and analyze the sample with FACS verse. The fluorescence intensity of the staining was measured using flow cytometer (BD, FACSVerse). The geometric mean fluorescence intensity (GMFI; median fluorescence intensity (MFI)) of set antibodies staining was calculated (BD FACSuite software). Dose-response curves were generated and EC50s for thetrispecific variants binding were calculated using GraphPad Prism software.
Results: The expressed trispecific constructs were analyzed for their binding to cells expressing endogenous CD3ε, 5T4 and NKG2A/NKG2D. […] (FIG. 45F).

[5] = target: T3, human CD3 epsilon on cells (Jurkat T cells, endogenous) (human, UniProt P07766 23-207); assay: FACS on Jurkat T cells, endogenous hCD3ε (FIG. 45A)
T3 construct: whole, on cells; On cells CD3 epsilon stands in the TCR/CD3 complex; only the epsilon chain is named as target; also called hCD3ε on Jurkat; CD3ε expressing cells
Description: (§2) Suspension cultured cells was harvested directly, and adherent cell were digested using TrypLE Express Enzyme (cat: 12604-013, supplier Life technologies). Centrifuge at 1000 rpm for 5 min and discard the supernatant. Cells are suspended at a concentration of 2×10⁶/mL in FACS buffer (2% FBS in PBS) and add 100 µL/well of cell suspension to the plate (cat #3799, supplier Corning). Centrifuging the plates at 2000 rpm for 5 min and discard the supernatant. Re-suspend the cells in 100 µL/well of Tribody set antibodies (400 nM start, 4-fold dilution, 8 point including 0 point) and incubate the plate for 60 min at 4° C. Centrifuge the plate at 2000 rpm, 4° C. for 5 min and discard supernatant. Then wash the cells 3 times with 170 µL FACS buffer. […] The fluorescence intensity of the staining was measured using flow cytometer (BD, FACSVerse). The geometric mean fluorescence intensity (GMFI; median fluorescence intensity (MFI)) of set antibodies staining was calculated (BD FACSuite software). Dose-response curves were generated and EC50s for thetrispecific variants binding were calculated using GraphPad Prism software.
Results: The expressed trispecific constructs were analyzed for their binding to cells expressing endogenous CD3ε, 5T4 and NKG2A/NKG2D.

[6] = target: T4, 5T4 on cells (NCI-H226 endogenous; CHO over-expressing 5T4) (UniProt Q13641 32-420, limits assumed); assay: FACS on NCI-H226 cells, endogenous 5T4 (FIG. 45B)
T4 construct: whole, on cells
T4 sequence (looked up): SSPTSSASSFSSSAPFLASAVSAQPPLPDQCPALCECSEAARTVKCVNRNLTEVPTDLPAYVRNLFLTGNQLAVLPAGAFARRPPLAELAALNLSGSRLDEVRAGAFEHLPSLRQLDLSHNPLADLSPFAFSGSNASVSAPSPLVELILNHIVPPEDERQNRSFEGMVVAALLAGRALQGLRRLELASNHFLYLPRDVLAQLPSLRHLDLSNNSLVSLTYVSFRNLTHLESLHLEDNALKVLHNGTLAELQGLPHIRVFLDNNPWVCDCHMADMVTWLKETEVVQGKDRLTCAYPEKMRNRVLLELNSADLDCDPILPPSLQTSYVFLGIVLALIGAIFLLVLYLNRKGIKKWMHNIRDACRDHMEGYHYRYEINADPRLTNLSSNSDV
Description: as §2, with “buffer. Re-suspend the cells at 100 µL/well with secondary antibody (goat anti-human Ig Fab-FITC, Cat # 2085-02, Southern biotech) with 1:400 dilution and incubate the plate for 30 min at 4° C. in dark. Centrifuge the plate at 2000 rpm, 4° C. for 5 min and discard supernatant.” for “buffer.”

T1 sequence (P26715 94-233 limits assumed, chain 1 of 2): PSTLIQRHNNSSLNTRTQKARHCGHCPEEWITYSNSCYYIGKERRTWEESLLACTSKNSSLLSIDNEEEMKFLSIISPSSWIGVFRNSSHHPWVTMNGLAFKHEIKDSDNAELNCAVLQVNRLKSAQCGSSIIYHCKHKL
T1 sequence (Q13241 32-179 limits assumed, chain 2 of 2): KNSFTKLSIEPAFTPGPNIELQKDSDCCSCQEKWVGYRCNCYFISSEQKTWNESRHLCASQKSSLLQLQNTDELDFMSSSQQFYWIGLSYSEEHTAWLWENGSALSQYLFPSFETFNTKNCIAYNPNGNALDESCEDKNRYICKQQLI
T2 sequence (P26715 whole entry, chain 1 of 2): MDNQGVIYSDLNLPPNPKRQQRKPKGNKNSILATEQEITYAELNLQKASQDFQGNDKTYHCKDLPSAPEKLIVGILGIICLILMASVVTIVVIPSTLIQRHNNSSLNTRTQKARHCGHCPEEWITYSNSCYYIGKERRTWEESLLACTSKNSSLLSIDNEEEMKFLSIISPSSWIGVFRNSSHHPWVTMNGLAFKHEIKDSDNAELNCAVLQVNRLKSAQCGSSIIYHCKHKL
T2 sequence (Q13241 whole entry, chain 2 of 2): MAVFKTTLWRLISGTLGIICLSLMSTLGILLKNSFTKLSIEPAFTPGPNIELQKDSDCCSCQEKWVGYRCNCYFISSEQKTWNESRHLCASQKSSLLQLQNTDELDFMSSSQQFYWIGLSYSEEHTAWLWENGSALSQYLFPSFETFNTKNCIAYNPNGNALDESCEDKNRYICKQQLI
T3 sequence (P07766 23-207): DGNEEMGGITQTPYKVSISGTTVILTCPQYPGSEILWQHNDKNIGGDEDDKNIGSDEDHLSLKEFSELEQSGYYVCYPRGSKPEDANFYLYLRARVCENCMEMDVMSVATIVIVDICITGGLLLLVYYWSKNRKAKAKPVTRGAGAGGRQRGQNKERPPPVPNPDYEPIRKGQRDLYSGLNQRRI

B1: IM-1062 Tribody (other)
heavy: GGSGGSEVQLVESGGGLVQPGGSLRLSCAASGFTFNTYAMNWVRQAPGKGLEWVARIRSKYNNYATYYADSVKDRFTISRDDSKNTLYLQMNSLRAEDTAVYYCVRHGNFGNSYVSWFAYWGQGTMVTVSSASTKGPSVFPLAPSSKSTSGGTAALGCLVKDYFPEPVTVSWNSGALTSGVHTFPAVLQSSGLYSLSSVVTVPSSSLGTQTYICNVNHKPSNTKVDKRVEPKSCPPCGGGGSDIQMTQSPSSLSASVGDRVTITCRASENIYSYLAWYQQKPGKAPKLLIYNAKTLAEGVPSRFSGSGSGTDFTLTISSLQPEDFATYYCQHHYGTPRTFGGGTKVEIKGGGGSGGGGSGGGGSGGGGSQVQLVQSGAEVKKPGASVKVSCKASGYTFTSYWMNWVRQAPGQGLEWMGRIDPYDSETHYAQKLQGRVTMTTDTSTSTAYMELRSLRSDDTAVYYCARGGYDFDVGTLYWFFDVWGQGTTVTVSS
light: GGSGGSQAVVTQEPSLTVSPGGTVTLTCRSSTGAVTTSNYANWVQQKPGQAPRGLIGGTNKRAPGTPARFSGSLLGGKAALTLSGVQPEDEAEYYCALWYSNLWVFGGGTKLTVLGQPKAAPSVTLFPPSSEELQANKATLVCLISDFYPGAVTVAWKADSSPVKAGVETTTPSKQSNNKYAASSYLSLTPEQWKSHRSYSCQVTHEGSTVEKTVAPTECPPCSGGGSDIQMTQSPSSLSASVGDRVTITCRASQGISNYLAWFQQKPGKAPKSLIYRANRLQSGVPSRFSGSGSGTDFTLTISSLQPEDVATYYCLQYDDFPWTFGQGTKLEIKGGGGSGGGGSGGGGSGGGGSQVQLVQSGAEVKKPGASVKVSCKASGYTFTSFWMHWVRQAPGQGLEWMGRIDPNRGGTEYNEKAKSRVTMTADKSTSTAYMELSSLRSEDTAVYYCAGGNPYYPMDYWGQGTTVTVSS
notes: Tri-specific antibody (Tribody): anti-CD3 epsilon Fab with an anti-5T4 scFv and an anti-NKG2A scFv, no regulatory domain; also called the Tribody format
NKG2A-CD94-ECD-hFc [1]
  EC50: 5.7 nM
[2]
  IC50: 29 nM
NKG2A-CD94-ECD-hFc [3]
  EC50: 4.4 nM
[4]
  EC50: 16 nM
[5]
  EC50: 1.1 nM
[6]
  EC50: 1.78 nM
